B1: SOAT1 (parent)
chain: PSNGRIDIKQLIAKKIKLTAEAEE

Variants of: B1
Assay: protein stability index of a GFP-peptide fusion (GPS, HEK-293T) (PSI 1-6); higher = more stable
Conditions: c terminus: a fixed tail appended
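Also: lentivirally expressed fusions sorted by FACS into six bins by GFP to DsRed ratio, PSI derived from sequencing read proportions per bin multiplied by bin number.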

Q: Which protein stability index does the source give for PSNGRIDIKQLIAKKIKLTAELEE here?
A: 3.2

Q: With PSNGRIDIKQLIAKKIKLTAEPEE as the variant, how does the protein stability index read?
A: 3.18

Q: Which protein stability index does the source give for PSNGRIDIKQLIAKKIKLTAEHEE here?
A: 3.42

Q: For PSNGRIDIKQLIAKKIKLTAEIEE, which protein stability index is on record?
A: 2.59

Q: With PSNGRIDIKQLIAKKIKLTAEVEE as the variant, how does the protein stability index read?
A: 2.94

Q: With PSNGRIDIKQLIAKKIKLTAEGEE as the variant, how does the protein stability index read?
A: 3.66

Q: Which protein stability index does the source give for PSNGRIDIKQLIAKKIKLTAEREE here?
A: 2.79

Q: Which protein stability index does the source give for PSNGRIDIKQLIAKKIKLTAEQEE here?
A: 3.72

Q: With PSNGRIDIKQLIAKKIKLTAESEE as the variant, how does the protein stability index read?
A: 3.26

Q: For PSNGRIDIKQLIAKKIKLTAEYEE, which protein stability index is on record?
A: 2.91

Q: Which protein stability index does the source give for PSNGRIDIKQLIAKKIKLTAEKEE here?
A: 3.15

Q: Which protein stability index does the source give for PSNGRIDIKQLIAKKIKLTAETEE here?
A: 2.82

Q: With PSNGRIDIKQLIAKKIKLTAEMEE as the variant, how does the protein stability index read?
A: 3

Q: Which protein stability index does the source give for PSNGRIDIKQLIAKKIKLTAEEEE here?
A: 3.93

Q: Which protein stability index does the source give for PSNGRIDIKQLIAKKIKLTAEWEE here?
A: 2.48

Q: For PSNGRIDIKQLIAKKIKLTAENEE, which protein stability index is on record?
A: 3.32

Q: Which protein stability index does the source give for PSNGRIDIKQLIAKKIKLTAEDEE here?
A: 4.05

Q: For PSNGRIDIKQLIAKKIKLTAECEE, which protein stability index is on record?
A: 2.63

Q: For PSNGRIDIKQLIAKKIKLTAEFEE, which protein stability index is on record?
A: 2.35

Q: With PSNGRIDIKQLIAKKIKLTARAEE as the variant, how does the protein stability index read?
A: 2.95

Q: For PSNGRIDIKQLIAKKIKLTALAEE, which protein stability index is on record?
A: 2.96

Q: Which protein stability index does the source give for PSNGRIDIKQLIAKKIKLTAKAEE here?
A: 2.51

Q: For PSNGRIDIKQLIAKKIKLTAGAEE, which protein stability index is on record?
A: 2.63

Q: Which protein stability index does the source give for PSNGRIDIKQLIAKKIKLTACAEE here?
A: 2.78

Q: With PSNGRIDIKQLIAKKIKLTAYAEE as the variant, how does the protein stability index read?
A: 2.21

Q: For PSNGRIDIKQLIAKKIKLTAIAEE, which protein stability index is on record?
A: 3.19

Q: With PSNGRIDIKQLIAKKIKLTADAEE as the variant, how does the protein stability index read?
A: 3.43

Q: With PSNGRIDIKQLIAKKIKLTAWAEE as the variant, how does the protein stability index read?
A: 2.12

Q: Which protein stability index does the source give for PSNGRIDIKQLIAKKIKLTAMAEE here?
A: 2.4

Q: With PSNGRIDIKQLIAKKIKLTAPAEE as the variant, how does the protein stability index read?
A: 2.92

Q: With PSNGRIDIKQLIAKKIKLTATAEE as the variant, how does the protein stability index read?
A: 3.15

Q: With PSNGRIDIKQLIAKKIKLTAQAEE as the variant, how does the protein stability index read?
A: 3.05

Q: Which protein stability index does the source give for PSNGRIDIKQLIAKKIKLTAAAEE here?
A: 2.74

Q: Which protein stability index does the source give for PSNGRIDIKQLIAKKIKLTAVAEE here?
A: 2.59

Q: With PSNGRIDIKQLIAKKIKLTAHAEE as the variant, how does the protein stability index read?
A: 3.13

Q: With PSNGRIDIKQLIAKKIKLTANAEE as the variant, how does the protein stability index read?
A: 3.13

Q: With PSNGRIDIKQLIAKKIKLTASAEE as the variant, how does the protein stability index read?
A: 3.02

Q: With PSNGRIDIKQLIAKKIKLTAFAEE as the variant, how does the protein stability index read?
A: 1.97

Q: For PSNGRIDIKQLIAKKIKLTPEAEE, which protein stability index is on record?
A: 3.78

Q: For PSNGRIDIKQLIAKKIKLTCEAEE, which protein stability index is on record?
A: 3.44

Q: Which protein stability index does the source give for PSNGRIDIKQLIAKKIKLTREAEE here?
A: 3.07

Q: For PSNGRIDIKQLIAKKIKLTSEAEE, which protein stability index is on record?
A: 3.61

Q: For PSNGRIDIKQLIAKKIKLTMEAEE, which protein stability index is on record?
A: 2.71

Q: With PSNGRIDIKQLIAKKIKLTFEAEE as the variant, how does the protein stability index read?
A: 2.51

Q: For PSNGRIDIKQLIAKKIKLTNEAEE, which protein stability index is on record?
A: 3.19

Q: Which protein stability index does the source give for PSNGRIDIKQLIAKKIKLTWEAEE here?
A: 2.66

Q: For PSNGRIDIKQLIAKKIKLTGEAEE, which protein stability index is on record?
A: 3.42

Q: For PSNGRIDIKQLIAKKIKLTVEAEE, which protein stability index is on record?
A: 2.8

Q: With PSNGRIDIKQLIAKKIKLTKEAEE as the variant, how does the protein stability index read?
A: 3.47

Q: With PSNGRIDIKQLIAKKIKLTQEAEE as the variant, how does the protein stability index read?
A: 3.44

Q: With PSNGRIDIKQLIAKKIKLTTEAEE as the variant, how does the protein stability index read?
A: 3.47

Q: Which protein stability index does the source give for PSNGRIDIKQLIAKKIKLTYEAEE here?
A: 2.8

Q: Which protein stability index does the source give for PSNGRIDIKQLIAKKIKLTIEAEE here?
A: 2.7

Q: For PSNGRIDIKQLIAKKIKLTLEAEE, which protein stability index is on record?
A: 3.1

Q: With PSNGRIDIKQLIAKKIKLTDEAEE as the variant, how does the protein stability index read?
A: 3.16

Q: For PSNGRIDIKQLIAKKIKLTHEAEE, which protein stability index is on record?
A: 3.66

Q: With PSNGRIDIKQLIAKKIKLTEEAEE as the variant, how does the protein stability index read?
A: 3.88

Q: Which protein stability index does the source give for PSNGRIDIKQLIAKKIKNTAEAEE here?
A: 3.73

Q: Which protein stability index does the source give for PSNGRIDIKQLIAKKIKCTAEAEE here?
A: 3.67

Q: With PSNGRIDIKQLIAKKIKGTAEAEE as the variant, how does the protein stability index read?
A: 4.04

Q: With PSNGRIDIKQLIAKKIKHTAEAEE as the variant, how does the protein stability index read?
A: 3.69

Q: For PSNGRIDIKQLIAKKIKSTAEAEE, which protein stability index is on record?
A: 3.59

Q: Which protein stability index does the source give for PSNGRIDIKQLIAKKIKMTAEAEE here?
A: 3.27

Q: With PSNGRIDIKQLIAKKIKETAEAEE as the variant, how does the protein stability index read?
A: 4.14

Q: With PSNGRIDIKQLIAKKIKQTAEAEE as the variant, how does the protein stability index read?
A: 3.89

Q: With PSNGRIDIKQLIAKKIKKTAEAEE as the variant, how does the protein stability index read?
A: 3.23

Q: For PSNGRIDIKQLIAKKIKYTAEAEE, which protein stability index is on record?
A: 3.13

Q: With PSNGRIDIKQLIAKKIKRTAEAEE as the variant, how does the protein stability index read?
A: 3.45

Q: Which protein stability index does the source give for PSNGRIDIKQLIAKKIKPTAEAEE here?
A: 4.04

Q: For PSNGRIDIKQLIAKKIKFTAEAEE, which protein stability index is on record?
A: 3.38

Q: For PSNGRIDIKQLIAKKIKVTAEAEE, which protein stability index is on record?
A: 3.53

Q: With PSNGRIDIKQLIAKKIKITAEAEE as the variant, how does the protein stability index read?
A: 3.72

Q: With PSNGRIDIKQLIAKKIKWTAEAEE as the variant, how does the protein stability index read?
A: 2.9

Q: For PSNGRIDIKQLIAKKIKDTAEAEE, which protein stability index is on record?
A: 4.13

Q: For PSNGRIDIKQLIAKKIKATAEAEE, which protein stability index is on record?
A: 3.62

Q: Which protein stability index does the source give for PSNGRIDIKQLIAKKIKTTAEAEE here?
A: 3.38

Q: With PSNGRIDIKQLIAKKIKLTAEAEM as the variant, how does the protein stability index read?
A: 2.27

Q: For PSNGRIDIKQLIAKKIKLTAEAEG, which protein stability index is on record?
A: 2.7

Q: For PSNGRIDIKQLIAKKIKLTAEAER, which protein stability index is on record?
A: 2.79

Q: With PSNGRIDIKQLIAKKIKLTAEAEV as the variant, how does the protein stability index read?
A: 2.48

Q: With PSNGRIDIKQLIAKKIKLTAEAEA as the variant, how does the protein stability index read?
A: 2.78

Q: With PSNGRIDIKQLIAKKIKLTAEAED as the variant, how does the protein stability index read?
A: 3.39

Q: Which protein stability index does the source give for PSNGRIDIKQLIAKKIKLTAEAEQ here?
A: 2.95

Q: Which protein stability index does the source give for PSNGRIDIKQLIAKKIKLTAEAEN here?
A: 3.07

Q: With PSNGRIDIKQLIAKKIKLTAEAEC as the variant, how does the protein stability index read?
A: 3.19

Q: Which protein stability index does the source give for PSNGRIDIKQLIAKKIKLTAEAEL here?
A: 3.11

Q: For PSNGRIDIKQLIAKKIKLTAEAES, which protein stability index is on record?
A: 2.73

Q: For PSNGRIDIKQLIAKKIKLTAEAEY, which protein stability index is on record?
A: 2.68

Q: Which protein stability index does the source give for PSNGRIDIKQLIAKKIKLTAEAEK here?
A: 2.98

Q: Which protein stability index does the source give for PSNGRIDIKQLIAKKIKLTAEAEI here?
A: 2.27

Q: For PSNGRIDIKQLIAKKIKLTAEAEF, which protein stability index is on record?
A: 2.22

Q: For PSNGRIDIKQLIAKKIKLTAEAET, which protein stability index is on record?
A: 3.44

Q: For PSNGRIDIKQLIAKKIKLTAEAEW, which protein stability index is on record?
A: 2.44

Q: For PSNGRIDIKQLIAKKIKLTAEAEP, which protein stability index is on record?
A: 3.24
